Test results taken from paper PMC4778049, “A Helitron transposon reconstructed from bats reveals a novel mechanism of genome shuffling in eukaryotes” (Nature Communications, 2016).

T1: Helraiser transposase (Myotis lucifugus, UniProt Z9MI32ZQP9, K1068Q)
T1 construct: full-length synthesized consensus transposase, 1,496 aa (N-terminal domain, Rep HUH nuclease, SF1 helicase); baculovirus expression, purified
T1 sequence (Z9MI32ZQP9 1-1496 K1068Q): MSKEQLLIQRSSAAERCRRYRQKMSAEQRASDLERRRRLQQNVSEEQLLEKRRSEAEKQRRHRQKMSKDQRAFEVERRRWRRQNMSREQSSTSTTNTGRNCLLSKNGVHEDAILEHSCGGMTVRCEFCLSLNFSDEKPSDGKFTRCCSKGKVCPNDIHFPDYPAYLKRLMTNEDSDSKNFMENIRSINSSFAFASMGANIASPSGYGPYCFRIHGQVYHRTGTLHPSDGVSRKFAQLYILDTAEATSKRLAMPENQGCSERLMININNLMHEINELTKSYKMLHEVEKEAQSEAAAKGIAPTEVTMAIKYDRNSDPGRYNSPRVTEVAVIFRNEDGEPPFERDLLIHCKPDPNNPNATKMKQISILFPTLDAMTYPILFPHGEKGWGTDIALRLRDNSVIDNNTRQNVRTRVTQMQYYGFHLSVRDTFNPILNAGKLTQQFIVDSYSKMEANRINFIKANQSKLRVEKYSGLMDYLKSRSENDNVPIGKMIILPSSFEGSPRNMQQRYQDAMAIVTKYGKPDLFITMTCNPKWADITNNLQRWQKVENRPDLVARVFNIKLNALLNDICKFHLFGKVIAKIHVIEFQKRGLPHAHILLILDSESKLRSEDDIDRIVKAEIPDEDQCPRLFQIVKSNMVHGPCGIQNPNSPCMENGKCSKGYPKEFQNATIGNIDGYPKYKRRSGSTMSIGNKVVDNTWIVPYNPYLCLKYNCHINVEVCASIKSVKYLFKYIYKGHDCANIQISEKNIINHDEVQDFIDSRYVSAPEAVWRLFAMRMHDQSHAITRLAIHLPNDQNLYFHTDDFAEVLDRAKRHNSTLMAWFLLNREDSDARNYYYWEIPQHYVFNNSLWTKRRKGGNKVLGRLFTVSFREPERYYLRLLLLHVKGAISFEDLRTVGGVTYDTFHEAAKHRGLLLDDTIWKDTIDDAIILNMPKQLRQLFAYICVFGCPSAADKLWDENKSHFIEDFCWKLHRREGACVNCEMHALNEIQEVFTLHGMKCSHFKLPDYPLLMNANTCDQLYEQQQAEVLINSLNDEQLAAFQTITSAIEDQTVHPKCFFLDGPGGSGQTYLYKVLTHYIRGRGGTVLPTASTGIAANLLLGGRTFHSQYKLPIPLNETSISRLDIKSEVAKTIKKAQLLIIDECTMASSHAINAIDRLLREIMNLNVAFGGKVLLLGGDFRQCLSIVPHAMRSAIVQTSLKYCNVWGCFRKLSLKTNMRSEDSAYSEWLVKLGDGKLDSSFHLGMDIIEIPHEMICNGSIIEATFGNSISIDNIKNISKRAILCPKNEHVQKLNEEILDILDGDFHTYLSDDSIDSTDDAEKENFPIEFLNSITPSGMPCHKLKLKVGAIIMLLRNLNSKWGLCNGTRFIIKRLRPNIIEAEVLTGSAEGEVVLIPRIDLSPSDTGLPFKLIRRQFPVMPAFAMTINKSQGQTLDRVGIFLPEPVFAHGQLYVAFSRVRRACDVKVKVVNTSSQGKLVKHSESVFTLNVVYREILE


How the values were obtained:
[1] = target: T1, Helraiser transposase; experiment: colorimetric ATPase assay (pyrophosphate release as printed); type: biochemical; details: Walker A mutant; ATP hydrolysis abolished
[2] = substrate: Nc1ncnc2c1ncn2[C@@H]1O[C@H](COP(=O)(O)OP(=O)(O)OP(=O)(O)O)[C@@H](O)[C@H]1O; experiment: as above; type: biochemical, Myotis lucifugus; details: DNA, metal, pH and temperature of the Km measurement not told in main text; helicase domain (Walker A) site

Molecule	colorimetric ATPase assay (pyrophosphate release as printed) [1]	Km [2] [µM]	kcat [2] [s⁻¹]
Nc1ncnc2c1ncn2[C@@H]1O[C@H](COP(=O)(O)OP(=O)(O)OP(=O)(O)O)[C@@H](O)[C@H]1O [ATP]	Mutation of the Walker A motif K1068 abolished ATP hydrolysis		
Helraiser transposase (Myotis lucifugus) (protein, full-length synthesized consensus transposase, 1,496 aa (N-terminal domain, Rep HUH nuclease, SF1 helicase); baculovirus expression, purified) MSKEQLLIQRSSAAERCRRYRQKMSAEQRASDLERRRRLQQNVSEEQLLEKRRSEAEKQRRHRQKMSKDQRAFEVERRRWRRQNMSREQSSTSTTNTGRNCLLSKNGVHEDAILEHSCGGMTVRCEFCLSLNFSDEKPSDGKFTRCCSKGKVCPNDIHFPDYPAYLKRLMTNEDSDSKNFMENIRSINSSFAFASMGANIASPSGYGPYCFRIHGQVYHRTGTLHPSDGVSRKFAQLYILDTAEATSKRLAMPENQGCSERLMININNLMHEINELTKSYKMLHEVEKEAQSEAAAKGIAPTEVTMAIKYDRNSDPGRYNSPRVTEVAVIFRNEDGEPPFERDLLIHCKPDPNNPNATKMKQISILFPTLDAMTYPILFPHGEKGWGTDIALRLRDNSVIDNNTRQNVRTRVTQMQYYGFHLSVRDTFNPILNAGKLTQQFIVDSYSKMEANRINFIKANQSKLRVEKYSGLMDYLKSRSENDNVPIGKMIILPSSFEGSPRNMQQRYQDAMAIVTKYGKPDLFITMTCNPKWADITNNLQRWQKVENRPDLVARVFNIKLNALLNDICKFHLFGKVIAKIHVIEFQKRGLPHAHILLILDSESKLRSEDDIDRIVKAEIPDEDQCPRLFQIVKSNMVHGPCGIQNPNSPCMENGKCSKGYPKEFQNATIGNIDGYPKYKRRSGSTMSIGNKVVDNTWIVPYNPYLCLKYNCHINVEVCASIKSVKYLFKYIYKGHDCANIQISEKNIINHDEVQDFIDSRYVSAPEAVWRLFAMRMHDQSHAITRLAIHLPNDQNLYFHTDDFAEVLDRAKRHNSTLMAWFLLNREDSDARNYYYWEIPQHYVFNNSLWTKRRKGGNKVLGRLFTVSFREPERYYLRLLLLHVKGAISFEDLRTVGGVTYDTFHEAAKHRGLLLDDTIWKDTIDDAIILNMPKQLRQLFAYICVFGCPSAADKLWDENKSHFIEDFCWKLHRREGACVNCEMHALNEIQEVFTLHGMKCSHFKLPDYPLLMNANTCDQLYEQQQAEVLINSLNDEQLAAFQTITSAIEDQTVHPKCFFLDGPGGSGKTYLYKVLTHYIRGRGGTVLPTASTGIAANLLLGGRTFHSQYKLPIPLNETSISRLDIKSEVAKTIKKAQLLIIDECTMASSHAINAIDRLLREIMNLNVAFGGKVLLLGGDFRQCLSIVPHAMRSAIVQTSLKYCNVWGCFRKLSLKTNMRSEDSAYSEWLVKLGDGKLDSSFHLGMDIIEIPHEMICNGSIIEATFGNSISIDNIKNISKRAILCPKNEHVQKLNEEILDILDGDFHTYLSDDSIDSTDDAEKENFPIEFLNSITPSGMPCHKLKLKVGAIIMLLRNLNSKWGLCNGTRFIIKRLRPNIIEAEVLTGSAEGEVVLIPRIDLSPSDTGLPFKLIRRQFPVMPAFAMTINKSQGQTLDRVGIFLPEPVFAHGQLYVAFSRVRRACDVKVKVVNTSSQGKLVKHSESVFTLNVVYREILE		46 ± 3.3	6.8 ± 0.11
